Results on 17 molecules are retold here after patent US20230382979A1 (ADAPTIVE BIOTECHNOLOGIES, published 2023).

The target of assay [1] is T1, Receptor-binding domain (RBD) of the SARS-CoV-2 spike protein, WA01/2020 strain (SARS-CoV-2, WA01/2020 strain, UniProt P0DTC2 319-541). Briefly: ELISA screening, antibody concentration not given. (In an ELISA, binding on a coated surface is turned into a signal by an enzyme label.)
The target of assay [2] is SARS-CoV-2 spike protein, B1.1.7 (alpha variant), borne on lentiviral pseudovirus (SARS-CoV-2, B1.1.7). As to the kind of experiment: cell-based or functional assay.
Assay [3] deals with SARS-CoV-2 spike protein on live virus, strain USA-WA1/2020 (SARS-CoV-2, WA01/2020 strain, UniProt P0DTC2 14-1273). Briefly: cell-based or functional assay.
The target of assay [4] is T1, Receptor-binding domain (RBD) of the …. As to the kind of experiment: dose-response ELISA on coated antigen.
Assay [5] has the same target. As to the kind of experiment: ELISA, antibody blocks RBD binding to human ACE2.
Assay [6] has the same target. As to the kind of experiment: SPR (Biacore 8K), antigen immobilized, antibody injected. For orientation: SPR reads the build-up and loss of mass on a sensor chip optically.
Assay [7] addresses SARS-CoV-2 spike protein, B1.351 (beta variant), borne on lentiviral pseudovirus (SARS-CoV-2, B1.351). As to the kind of experiment: cell-based or functional assay.

B1: antibody 1959 (antibody, V domains shown)
VH: QVQLVQSGTEVKKPGSSVRVSCQASGDTFTSHAIIWIRQAPGQGLEYLGRIIPVLDITNAAQRFLGRLTLTADKSTTTAYMELSSLRSEDTAVYYCARAPFGLIVMYDHWGQGTLVTVTA
VL: EIVLTQSPGTLSLSPGERATLSCRASQSVSGNFLAWYQQKPGQAPRLLIHETSKRATGIPDRVSGGGSGTDFTLTISRLEPEDFAVYHCQQYGTTAVTFGQGTRLDMK
Regarding B1, in assay [1], the binding result was “no binding (tested: not printed)”.

B2: antibody 2075 (antibody, V domains shown)
VH: QVQLVQSGAEVKKPGSSVKVSCTASGGTFSIYAFSWVRQAPGQGLEWMGGIIPISGTAGYAQKFQGRVTITADESTSTAYMELSSLRSEDTAIYYCARKYRYCSGSRCYTYFDYWGQGTLVTVSS
VL: DIQMTQSPSSLSASVGDRVTITCRASQSISSFLNWYQQKPGKAPKLLIYAASSLQSGVPSRFSGSGSGTDFTLTISSLQPEDSATYYCQQSYSTITFGQGTRLEIK
In general, EC50 refers to the concentration needed to bring the measured effect to its halfway point. Low readings indicate greater potency, high ones weaker potency. As a reminder, the IC50 is the midpoint of a concentration-inhibition curve. A lower IC50 goes with inhibition by little substance. The term Kd denotes the concentration at which binding is half-saturated. The low end stands for tighter binding, the high end for weaker binding. Consider B2, for which the “Pseudo Neut, B1.1.7 IC50 (pM)” value in assay [2] is roughly 7 pM. For the same molecule, in assay [3], the “Live Neut, WA1/2020 IC50 (pM)” value was 12 pM. In addition, in assay [4], it took 0.073 nM to reach a half-maximal effect (EC50). Besides, the IC50 in assay [5] came to 0.93 nM. Besides, in assay [6], the Kd was less than 0.0007 nM.

B3: antibody 1856 (antibody, V domains shown)
VH: EVRLVESGGGLVKPGGSLRLSCAASGFSFSLYTMNWVRQAPGKGLEWVSYISSSSSYRYYADSVKGRFSVSRDNAKNTLYLEMNGLRAEDTAVYYCARDGYCPRGVCTYYGMDVWGQGTTVTVSA
VL: EIVMTQSPATLSVSPGERATLSCRASQTIGIRLAWYQQKPGQAPRLLIYDATIRATGIPARFSGSGSGTDFTLTISGLQSEDFAVYYCQRYNNWPPVYTFGQGTKLEMK
Turning to B3, in assay [1], the binding result is “no binding (tested: not printed)”.

B4: antibody 1915 (antibody, V domains shown)
VH: QVQLVESGGGVVQPGRSLRLSCAASGFTFSSYAMHWVRQAPGKGLEWVAVISYDGSNKYYADSVKGRFTISRDNSKNTLYLQMDSLRAQDTAVYYCATPRDMFSSGWSSPFDYWGQGTLVTVSS
VL: DIQMTQSPSSLSASVGDRVTITCQASQDISIYLTWYQQKPGKAPKLLIYGASNLEVEVPSRFSGSGSGTEFTLTISSLQPEDFATYFCQHSDDLPVTFGGGTKVEVK
For the molecule B4, the binding result in assay [1] was “no binding (tested: not printed)”.

B5: antibody 1963 (antibody, V domains shown)
VH: QVQLVQSGAEVKKPGASVKVSCKASGYTFTSNYIHWLRQAPGQGLEWMGIIKPSGTSTISAQKFRGRVAMTRDTSTSTVYMELSSLRFEDTAIYYCARDAKRALETWGQGTMVTVSS
VL: QSVLTQPPSVSAAPGQKVTISCSGSSSNIGNNYVSWYQQLPGTAPKLLIYDNNKRPSGIPDRFSGSRSGTSATLGITGLQTGDEADYYCGTWDSSLSAWVFGGGTKLTVL
On to B5, for which the binding result in assay [1] is on record as “no binding (tested: not printed)”.

B6: antibody 1814 (antibody, V domains shown)
VH: QVQLQESGPGLVKPSETLSLTCSVSGGSINYYYWSWIRQTPGQGLEWIGFIYSSGTTNYNPSLKSRVTMSKDTAKKQFSLKLTSVTAADSAVYYCARHSRSCTNGVCQTYYYYALDVWGHGTTVTVSS
VL: QSVLTQPPSVSGAPGQRVTISCTGSGSNIGSGYDVHWYQQLPGRAPKLLIYRNRNRPSGVPDRFSGSKSGTSASLAIAGLQSEDEGDYFCQSYDGRLGESAVFGGGTRLTVL
B6: in assay [2], the “Pseudo Neut, B1.1.7 IC50 (pM)” value turned out to be 237 pM. Also, the “Pseudo Neut, B1.351 IC50 (pM)” value in assay [7] is 32 pM. Besides, the binding result in assay [1] is given as “no binding (tested: not printed)”.

B7: antibody 1815 (antibody, V domains shown)
VH: QVQLQESGPGLVKPSETLSLTCSVSGGSINYYYWSWIRKSPGKGLEWIGFIYSSGTTNYNPSLKSRVSMSIGTSKRQFSLKLSSVTAADSAVYYCARHSRSCTNGVCQTYYYYALDVWGHGTTVTVSS
VL: QSVLTQPPSVSGAPGQRVTISCTGSSSNIGAGYDVHWYQQLPGTAPKLLIYANTHRPSGVPDRFSASKSGTSASLAIAGLQAEDEGDYYCQSYDGSLSESAVFGGGTRLTVL
In the case of B7, in assay [7], the “Pseudo Neut, B1.351 IC50 (pM)” value was determined as 345 pM. In addition, in assay [1], the binding result is recorded as “no binding (tested: not printed)”.

B8: antibody 1864 (antibody, V domains shown)
VH: QVQLQESGPGLVKPSETLSLTCTVSGGSINYYYWSWIRQPPGKGLEWIGFIYSSGTTNYNPSLKSRVTMSVDSSKSQFSLKLSSVTAADSAVYYCARHSRSCTNGVCQTYYYYALDVWGHGTTVTVSS
VL: QSVLTQPPSVSGAPGQRVTISCTGSSSNIGAGYDVHWYQQLPGTAPKLLIYGNSNRPSGVPDRFSASKSGTSASLAIAGLQPEDEGDYYCQSYDGSLSESGVFGGGTRLTVL
Take B8: the binding result in assay [1] was “no binding (tested: not printed)”.

B9: antibody 1870 (antibody, V domains shown)
VH: QVQLQESGPGLVKPSETLSLTCSVSGGSINYYYWSWIRQPPGKGLEWIGFIYSSGTTNYNPSLKSRVTMSVDTSKNQFSLKLSSVTAADSAVYYCARHSRSCTNGVCQTYYYYALDVWGHGTTVTVSS
VL: QSVLTQPPSVSGAPGQRVTISCTGSSSNIGAGYDVHWYQQLPGTAPKLLIYGNSNRPSGVPDRFSASKSGTSASLAIAGLQAEDEGDYYCQSYDGSLSESGVFGGGTRLTVL
B9: the binding result in assay [1] is recorded as “no binding (tested: not printed)”.

B10: antibody 1851 (antibody, V domains shown)
VH: QVQLQESGPGLVKPSETLSLTCTVSGGSINYYYWSWIRQSPGKGLEWIGFIYSSGTTNYNPSLKSRVTMSVDSSKSQFSLKLSSVTAADSAVYYCARHSRSCTNGVCQTYYYYALDVWGHGTTVTVSS
VL: QSVLTQPPSVSGAPGQRVTISCTGSSSNIGAGYDVHWYQQLPGTAPKLLIYGNSNRPSGVPDRFSASKSGTSASLAIAGLQPEDEGDYYCQSYDGSLSESGVFGGGTRLTVL
For the molecule B10, the binding result in assay [1] was “no binding (tested: not printed)”.

B11: antibody 1823 (antibody, V domains shown)
VH: EVQLVESGGGLVKPGGSLRLSCVASGFSFGLYTMNWVRQAPGKGLEWVSYISSSTSYKYYADSVKGRVSVSRDNAKNSLYLQLNGLRVEDTAVYYCARDGYCPNGICTYYGMDVWGQGTTVTVSA
VL: EIVMTQSPATLSVSPGERATLSCRASQSVSSNLAWYQQKPGQAPRLLIYGASTRATGIPARFSGSGSGTEFTLTITGLQSEDFAVYYCQQYDKWPPAYSFGQGTKVEIK
Consider B11, for which the “Pseudo Neut, B1.1.7 IC50 (pM)” value in assay [2] stood at 850 pM. For the same molecule, the “Pseudo Neut, B1.351 IC50 (pM)” value in assay [7] was determined as 133 pM.

B12: antibody 1867 (antibody, V domains shown)
VH: EVQLVESGGGLVKPGGSLRLSCAASGFSFSTYTMNWVRQAPGKGLEWVSYISSSSSYRYYADSVRGRFSVSRDNAKNSLYLQMNGLRVEDTAVYYCARDGYCPNGVCTYYGMDVWGQGTTVTVSS
VL: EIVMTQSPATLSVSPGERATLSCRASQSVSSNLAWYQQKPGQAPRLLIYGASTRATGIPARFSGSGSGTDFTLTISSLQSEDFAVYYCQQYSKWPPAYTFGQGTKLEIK
Consider B12, for which, in assay [1], the binding result was “no binding (tested: not printed)”.

B13: antibody 1888 (antibody, V domains shown)
VH: EVQLVESGGGLVKPGGSLRLSCAASGFTFSSYSMNWVRQAPGKGLEWVSYISSSSSYKYYADSVKGRFSVSRDNAKNSLYLQLNGLRVEDTAVYYCARDGYCPKGVCTYYGMDVWGQGTTVTVSA
VL: EIVMTQSPATLSVSPGERATLSCRASQSVRSRLAWFQQKPGQPPRLLIYDASIRATGIPDRFSGSGSGTEFTLIISGLQSEDFAVYYCQQYDNWPPAYTFGQGTKLEIK
Consider B13, for which, in assay [1], the binding result is reported as “no binding (tested: not printed)”.

B14: antibody 1859 (antibody, V domains shown)
VH: EVQLVESGGGLVKPGGSLRLSCAASGFSFNTYTMNWVRQAPGKGLEWVSYISSSSSYKYYSDSVKGRFSVSRDNAKKSLYLQMNGLRAEDTAVYYCARDGYCPNGVCTYYGMDVWGQGTTVTVSL
VL: EIVMTQSPATLSVSPGERATLSCRASQSVSSNLAWYQQKPGQAPRLLIYGASTRATGIPARFSGSGSGTEFTLTISGLQSEDFAVYFCQQYSKWPPAYTFGQGTKLEIK
Regarding B14, the “Pseudo Neut, B1.1.7 IC50 (pM)” value in assay [2] was 230 pM. Moreover, in assay [7], the “Pseudo Neut, B1.351 IC50 (pM)” value is 73 pM. For the same molecule, the binding result in assay [1] is reported as “no binding (tested: not printed)”.

B15: antibody 1969 (antibody, V domains shown)
VH: QVQLVQSGAEVKKPGASVKVSCKASGYSFTDYYIHWVRQAPGQGLEWMGIIKPSAGATVYAQKFRGRVSMTSDTSTGTVYMELSGLKSEDTAVYYCARDYNRSFDFWGQGTLVTVSS
VL: QSVLTQPPSVSAAPGQTVTISCAGSTSNIGKNYVSWYQHLPGTAPKLLIYDNIKRPSGIPDRFSGSTSGTSATLGITELQTGDEADYYCGTWDSSLSAYVFGTGTKVTVL
Regarding B15, the binding result in assay [1] is listed as “no binding (tested: not printed)”.

B16: antibody 2706 (antibody, V domains shown)
VH: QVQLVQSGAEVKKPGSSVKVSCKASGGTFSTYAISWVRQAPGQGLEWMGGIIPLFATANYAQNFQGRVTITADKSTSTAYMELSSLRSEDTAVYYCASVRLHLEELSLSHQGDYYYGLDVWGQGTTVTVSS
VL: DIQMTQSPSSLSASVADRVTITCQASQDISHYLNWYQQKPGKAPQLLIYDASKLETGAPSRFSGSGSGTDFTFTISSLQPEDIATYYCQQYDHLPLTFGGGSKVEIK
For the molecule B16, the “Pseudo Neut, B1.1.7 IC50 (pM)” value in assay [2] was 13 pM. In addition, in assay [7], the “Pseudo Neut, B1.351 IC50 (pM)” value was greater than 18000 pM. In assay [3], the “Live Neut, WA1/2020 IC50 (pM)” value was 171 pM. The same molecule came in with an EC50 in assay [4] of 0.017 nM. The concentration for half-maximal inhibition (IC50) in assay [5] came to 0.51 nM. Besides, the Kd in assay [6] came out at 0.029 nM.

B17: antibody 1826 (antibody, V domains shown)
VH: QVQLQESGPGLVKPSETLSLTCSVTGGSTNYYYWSWIRQPPGKGLEWIGYIYYSGTTNYNPSLKDRVTMSVDKSKTQLSLKLNSVTAADTAVYYCARHARHCTNGVCQTYYYYGLDVWGLGTTVAVSA
VL: QSVLTQPPSVSAAPGQRVTISCSGSSSNIGAGYDVHWYQHLPGTAPKLLIYNNNNRPSGVPDRFSASRSGTSASLAITGVQTEDEADYYCQSFDGRLSESGVFGGGTKLTVL
In the case of B17, in assay [1], the binding result is reported as “no binding (tested: not printed)”.
